Data: PMC3871432 (The Journal of Cell Biology, 2013)
“And” between values parts separate entries of the source, which are not always exact repeats. Identical values can stand only once. Like-named read-outs stand apart in the source and are kept apart here.

What was measured:
[1] = target: T1, She2p;She3p;Myo4p full-length (Saccharomyces cerevisiae;Saccharomyces …, UniProt P36068;P38272;P32492 1-246;1-425;1-1471, ||); assay: single-molecule TIRFM
She2p = She2p (Saccharomyces cerevisiae, UniProt P36068 1-246); assay: SLS
Sequence of She2p (P36068 whole entry): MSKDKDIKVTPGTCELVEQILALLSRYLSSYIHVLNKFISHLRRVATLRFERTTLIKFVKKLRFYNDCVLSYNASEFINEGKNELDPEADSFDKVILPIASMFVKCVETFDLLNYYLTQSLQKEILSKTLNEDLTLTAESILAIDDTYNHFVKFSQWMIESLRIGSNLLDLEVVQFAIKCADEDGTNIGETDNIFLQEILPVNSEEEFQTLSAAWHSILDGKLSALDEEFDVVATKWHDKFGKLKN

She2p;She3p;Myo4p-C [2] = target: T2, She2p;She3p;Myo4p-C (Saccharomyces cerevisiae;Saccharomyces …, UniProt P36068;P38272;P32492 1-246;1-425;978-1471, ||); assay: SEC
T2 sequence (P36068 whole entry, the tested form may be a part, one chain of several): as the sequence (P36068 whole entry) above

[3] = target: T3, Myo4p-C (amino acids 978–1,471) (S. cerevisiae, UniProt P32492 978-1471); assay: ITC
T3 sequence: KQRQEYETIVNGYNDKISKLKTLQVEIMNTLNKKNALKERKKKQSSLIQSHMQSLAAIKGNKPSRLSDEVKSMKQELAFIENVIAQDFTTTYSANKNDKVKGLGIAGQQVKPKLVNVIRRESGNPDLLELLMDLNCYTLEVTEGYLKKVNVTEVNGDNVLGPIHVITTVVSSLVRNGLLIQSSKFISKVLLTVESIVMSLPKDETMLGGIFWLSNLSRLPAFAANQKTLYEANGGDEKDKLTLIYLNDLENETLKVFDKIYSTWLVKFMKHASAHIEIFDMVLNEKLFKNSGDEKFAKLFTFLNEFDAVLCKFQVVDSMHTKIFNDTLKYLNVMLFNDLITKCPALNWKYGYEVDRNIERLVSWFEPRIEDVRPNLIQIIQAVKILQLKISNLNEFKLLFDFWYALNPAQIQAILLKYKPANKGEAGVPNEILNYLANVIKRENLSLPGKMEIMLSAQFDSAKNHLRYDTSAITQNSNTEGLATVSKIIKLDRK

cross-linking = target: the molecule itself; assay: cross-linking
[4] = target: T3, Myo4p-C (amino acids 978–1,471); assay: quantitative mass spectrometry with heavy isotope-labeled peptides
[5] = target: T3, Myo4p-C (amino acids 978–1,471); assay: static light scattering coupled to SEC
[6] = target: T3, Myo4p-C (amino acids 978–1,471); assay: quantitative mass spectrometry with heavy isotope-labeled peptides; remark: listed apart in the source
She2p;She3p;Myo4p-C [7] = target: T2, She2p;She3p;Myo4p-C; assay: SLS
[8] = target: T1, She2p;She3p;Myo4p full-length; assay: single-molecule TIRFM; remark: listed apart in the source
She2p;She3p;Myo4p-C [9] = target: T2, She2p;She3p;Myo4p-C; assay: EMSA
She3p;Myo4p-C = target: T4, She3p;Myo4p-C (Saccharomyces cerevisiae;Saccharomyces …, UniProt P38272;P32492 1-425;978-1471, |); assay: EMSA
T4 sequence 1: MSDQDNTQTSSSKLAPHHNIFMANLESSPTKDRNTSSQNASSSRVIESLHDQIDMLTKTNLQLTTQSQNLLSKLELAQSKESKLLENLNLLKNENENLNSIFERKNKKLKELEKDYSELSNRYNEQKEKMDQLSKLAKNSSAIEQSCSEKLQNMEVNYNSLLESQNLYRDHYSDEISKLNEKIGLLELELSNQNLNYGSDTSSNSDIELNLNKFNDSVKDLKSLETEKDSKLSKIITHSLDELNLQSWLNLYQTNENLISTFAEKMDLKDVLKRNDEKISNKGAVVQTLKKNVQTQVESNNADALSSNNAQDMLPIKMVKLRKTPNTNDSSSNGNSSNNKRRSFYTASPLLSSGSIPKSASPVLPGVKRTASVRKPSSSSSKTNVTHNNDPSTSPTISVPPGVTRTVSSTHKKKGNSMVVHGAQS
T4 sequence 2: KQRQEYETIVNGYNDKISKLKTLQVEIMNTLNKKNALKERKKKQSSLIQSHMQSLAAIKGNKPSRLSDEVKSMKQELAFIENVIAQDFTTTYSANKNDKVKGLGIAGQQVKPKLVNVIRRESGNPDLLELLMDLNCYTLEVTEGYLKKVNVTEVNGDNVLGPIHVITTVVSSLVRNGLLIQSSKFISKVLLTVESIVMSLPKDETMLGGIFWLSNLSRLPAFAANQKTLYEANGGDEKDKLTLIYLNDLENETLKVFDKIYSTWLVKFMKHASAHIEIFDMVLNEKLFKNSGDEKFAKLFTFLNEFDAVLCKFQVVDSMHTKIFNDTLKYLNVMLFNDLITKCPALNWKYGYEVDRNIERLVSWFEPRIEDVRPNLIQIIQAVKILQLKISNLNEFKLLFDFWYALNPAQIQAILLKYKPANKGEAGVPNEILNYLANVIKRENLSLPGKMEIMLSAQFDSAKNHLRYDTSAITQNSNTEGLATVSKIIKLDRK

T1 sequence (P36068 whole entry, one chain of several): as the sequence (P36068 whole entry) above

B1: ASH1-E3-77 + 3' overhang (mixed)
RNA: GGGAGAGAAUUGAUACAUGGAUAACUGAAUCUCUUUCAACUAAUAAGAGACAUUAUCACGAAACAAUUGUACAUUUCUCUCCUUGUCUGUGCUAAAUAAACUAC
DNA: GTAGTTTATTTAGCACAGACAAGG
B1: binds [1].

B2: IST2-tRNA (structured_RNA)
RNA: GGCUACGUAGCUCAGUUGGUUAGAGCAGCGGCCGGAUGCUGGAGUGAAGAAUGUCACGAACAAUUCUAAGACAACCGAAUCCUCUUCCUCUUCAUCUGGCCGCGGGUCACAGGUUCGAAUCCCGUCGUAGCCACCA
B2: binds (She2p).

B3: ASH1-E3-51 (structured_RNA)
RNA: AUGGAUAACUGAAUCUCUUUCAACUAAUAAGAGACAUUAUCACGAAACAAU
B3: binds (She2p;She3p;Myo4p-C [2]); binds (She2p).

B4: She3p, full-length (natural protein)
chain: MSDQDNTQTSSSKLAPHHNIFMANLESSPTKDRNTSSQNASSSRVIESLHDQIDMLTKTNLQLTTQSQNLLSKLELAQSKESKLLENLNLLKNENENLNSIFERKNKKLKELEKDYSELSNRYNEQKEKMDQLSKLAKNSSAIEQSCSEKLQNMEVNYNSLLESQNLYRDHYSDEISKLNEKIGLLELELSNQNLNYGSDTSSNSDIELNLNKFNDSVKDLKSLETEKDSKLSKIITHSLDELNLQSWLNLYQTNENLISTFAEKMDLKDVLKRNDEKISNKGAVVQTLKKNVQTQVESNNADALSSNNAQDMLPIKMVKLRKTPNTNDSSSNGNSSNNKRRSFYTASPLLSSGSIPKSASPVLPGVKRTASVRKPSSSSSKTNVTHNNDPSTSPTISVPPGVTRTVSSTHKKKGNSMVVHGAQS
For B4, the “stoichiometry N” value [3] was 1.93 She3p:Myo4p, the “stoichiometry N” value (cross-linking) was 2 and the “stoichiometry N” value [4] was 2.56 She3p:Myo4p-C. For the same binder, the “stoichiometry N” value [5] was 2 She3p/Myo4p-C and the “stoichiometry N” value [6] was 2.12 She3p:Myo4p-C and 2.23 She3p:Myo4p-C.

B5: ASH1-E3-77-tRNA (structured_RNA)
RNA: GGCUACGUAGCUCAGUUGGUUAGAGCAGCGGCCGAGAGAAUUGAUACAUGGAUAACUGAAUCUCUUUCAACUAAUAAGAGACAUUAUCACGAAACAAUUGUACAUUUCUCUUGGCCGCGGGUCACAGGUUCGAAUCCCGUCGUAGCCACCA
B5: binds (She2p;She3p;Myo4p-C [7]); binds (She2p).

B6: She3p N-terminal fragment (amino acids 1–234) (domain or fragment)
chain: MSDQDNTQTSSSKLAPHHNIFMANLESSPTKDRNTSSQNASSSRVIESLHDQIDMLTKTNLQLTTQSQNLLSKLELAQSKESKLLENLNLLKNENENLNSIFERKNKKLKELEKDYSELSNRYNEQKEKMDQLSKLAKNSSAIEQSCSEKLQNMEVNYNSLLESQNLYRDHYSDEISKLNEKIGLLELELSNQNLNYGSDTSSNSDIELNLNKFNDSVKDLKSLETEKDSKLSK
B6: binds (cross-linking).

B7: IST2 + 22-nt 3' overhang (mixed)
RNA: GGGAUGCUGGAGUGAAGAAUGUCACGAACAAUUCUAAGACAACCGAAUCCUCUUCCUCUUCAUCGGCGGCAAAGGAAAAACCAAAA
DNA: TTTTGGTTTTTCCTTTGCCGCC
B7: binds [8].

B8: ASH1-E3-77 (structured_RNA)
RNA: GGGAGAGAAUUGAUACAUGGAUAACUGAAUCUCUUUCAACUAAUAAGAGACAUUAUCACGAAACAAUUGUACAUUUCUCU
B8: binds (She2p;She3p;Myo4p-C [9]); binds (She3p;Myo4p-C).
